Data as given in the DeepSol protein solubility set.

Test: soluble on expression in E. coli; label from the status in PepcDB or PDB records

| Sequence | soluble on expression in E. coli |
| --- | --- |
| MAFVLNGQDLDALATGGCFFGSGGGGTLSSAKGLLRHFNKGAYYPADQVTVVTVDEAVSAAEGDAVMVAYMGSPQAINGSSYPEGPVGAAENIQGKLATQGRKLAYIVPPESGALGFVVACLVAVRLGLKVIDADGAGRAVPSLPMLTYAAAAISPRPAVLVSQEGLQVELDVTPRDGENGSVTHQQDVAAIIENMMRPIVAAAQFKEFGGLAMWVMAPEQFSAALPIHGTLSRAVKTGHALAAGELDTAARMQDFLKRESGLLARPIFTGQFKAVEVSTGAGFDVGKMHIVSAEATCTVVYQNESMLAWDSRAAAPLVTAPDSLAYFVSGPGQSVYSNGDAVLADGTLSPSLKDRTVTLFAWQADAALRTPDGQILASFMGLLADMGYLGPYISVEAMQLATAGESRPLEHHHHHH | not soluble |
| MAGASETYTHTLTDVPIDIKYDSDDYFISGYSYGADVYMSSVNRVKLDSEINEDTRKFKVVADLTNMKPGTHKVPLKVVNLPSGVNATVSPTTITVTMGKKKTLEHHHHHH | soluble |
| MAGDPMKIYFEAYGCTLNQGETALYVNKLLNEGNTLVSNPKEADLSIIGTCAVIKKTEDHMMARIQNLSRFGKVEVIGCLAPVKGKTMVEDNVSVIEKDRFRSFQEVIDEVSPVNAEIVSGIPINQGCTGKCNFCVSHIARGKLVSRKPEKIAGQIKILLQRGIKEIKITSLDTAAYGKDIGLRLPHLIRTITEIGDDFRLRVGMMEPKNTLEIVDDLISAYRSEKVFKFLHLPVQSGDDYVLEVMNREYTVSDFIRITGKFREAFPDSTLSTDLIIGYYAENDDSFEKTVQLIEKIRPEIINVTKFSPRELTADFEKRPKPTNILKEQDRMIADMHKEILQEKFSNLIGKTEFVLITENGKGRSMIGRDHAYRPIVIMDKTRKFEFHQVEITGFENTSLIGRIIDLEHHHHHH | not soluble |
| MAGDPMLNSFKLSLQYILPKLWLTRLAGWGASKRAGWLTKLVIDLFVKYYKVDMTEAQKPDTASYRTFNDFFVRPLRDDVRPLNTDPNILVMPADGVISQLGRIEEDKILQAKGHNYSLEALLAGNYLMADKFRNGTFVTTYLSPRDYHRVHMPCNGILREMIYVPGDLFSVNHLTAQNVPNLFARNERVICLFDTEFGPMAQILVGATIVGSIETVWAGTITPPREGIIKRWTWPEGEHEGSVALLKGQEMGRFKLGSTVINLFAPGKVNLIASLASLSVTKIGQPLATSTETFVAPEVEPAPLPAEEIKAEHDASPLVDNKKDDTLEHHHHHH | soluble |
| MAGFPGKEAGPPGGWRKCQEDESPENERHENFYAEIDDFAPSVLTPTGSDSGAGEEDDDGLYQVPTHWPPLMAPTGLSGERVPCRTQAAVTSNTGNSPGSRHTSCPFTLPRGAQPPAPAHQKPTAPTPKPRSRECGPSKTPDPFSWFRKTSCTEGGADSTSRSFMYQKGFEEGLAGLGLDDKSDCESEDESNFRRPSSHSALKQKNGGKGKPSGLFEHLAAHGREFSKLSKHAAQLKRLSGSVMNVLNLDDAQDTRQAKAQRKESMRVPIVTHLTNHVPVIKPACSLFLEGAPGVGKTTMLNHLKAVFGDLTIVVPEPMRYWTHVYENAIKAMHKNVTRARHGREDTSAEVLACQMKFTTPFRVLASRKRSLLVTESGARSVAPLDCWILHDRHLLSASVVFPLMLLRSQLLSYSDFIQVLATFTADPGDTIVWMKLNVEENMRRLKKRGRKHESGLDAGYLKSVNDAYHAVYCAWLLTQYFAPEDIVKVCAGLTTITTVCHQSHTPIIRSGVAEKLYKNSIFSVLKEVIQPFRADAVLLEVCLAFTRTLAYLQFVLVDLSEFQDDLPGCWTEIYMQALKNPAIRSQFFDWAGLSKVISDFERGNRD | not soluble |
| MAGKITVVGLGAGDMDQLTIGIHKLLTKADTLYVRTKDHPLIEELEKETKNIRFFDDIYEKHDQFEAVYEEIADILFEAARREDVVYAVPGHPFVAEKTVQLLTERQEKENVQVKVAGGQSFLDATFNVLQIDPIEGFQFVDAGTLSADELELRHHLIICQVYDQMTASEVKLTLMEKLPDDYEVVIVTAAGSRGEEIRTVPLFELDRNVALNNLTSVYIPPIKEEKLLYHEFSTFRSIIRELRGPNGCPWDKKQTHQSLKQYMIEECYELLEAIDEEDTDHMIEELGDVLLQVLLHAQIGEDEGYFTIDDVIKGISEKMVRRHPHVFKDVKVQDENDVLANWEDIKKAEKNTSESSLLDSVPKTLPALSKAAKLQKKAAKVGFDWEDVSDIWEKVSEEMKEFSSEVSEAPHEHNLKAEFGDILFALVNVARFYKIEPEEALTMTNDKFRRRFSYIEETAKEEGVELADMSLEDMDKLWNEAKETERRS | soluble |
| MAGNHTNRPGLRKTNKKGATKGSGAVRRRGLKGKGPTPKAEDREYHAAYKKKMERKRRDQGRHVKEETSELVVGRNPVVECLHAKVPATT | not soluble |
